Data from patent US20210040204A1 (INSERM INSTITUT NATIONAL DE LA SANT ET DE LA RECHERCHE M …, published 2021).

Assays:
human Claudin-1 [1] = biological target: T1, human Claudin-1 (human, UniProt O95832 1-211); assay: flow cytometry on Huh7.5.1 and HepG2 cells with surface CLDN1 (FIG. 2A)
T1 construct: whole, on cells; also called CLDN1; human CLDN1
T1 sequence (looked up): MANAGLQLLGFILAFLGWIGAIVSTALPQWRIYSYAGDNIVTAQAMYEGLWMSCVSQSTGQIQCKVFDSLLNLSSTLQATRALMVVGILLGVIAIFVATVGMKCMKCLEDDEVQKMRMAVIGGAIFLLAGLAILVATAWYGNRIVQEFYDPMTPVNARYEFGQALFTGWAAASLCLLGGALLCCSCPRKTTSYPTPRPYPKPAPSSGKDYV
Protocol: (§1) FIG. 2. […] (A) Flow cytometry analysis of the binding of humanized OM-7D3-B3 anti-CLDN1 mAbs (20 μg/mL) to cell lines. […] Binding is expressed as delta median fluorescence intensity (ΔMFI). […] After 48 h, cells were stained with isotype control, rat OM-7D3-B3 or humanized H3L3 antibody (20 μg/mL). The ΔMFI from one experiment performed in duplicate are shown. […] Huh 7.5.1 cells were incubated with different mAbs (25 μg/mL) at 37° C. for 1 h prior to infection with HCVcc. Infectivity was assessed after 72 h by measuring luciferase activity and is expressed as log relative luciferase units (RLU). (D) Humanized anti-CLDN1 mAbs inhibit entry of HCVpp bearing envelope glycoproteins of strains H77 (genotype 1a) and HCV-J (genotype 1b). PHH were pre-treated with the humanized antibodies (20 μg/mL) for 1 h at 37° C. prior to infection with HCVpp. Infectivity was measured by luciferase activity after 72 h and is expressed as RLU. Graphs show results from one experiment performed in duplicate (A, B, D) or in triplicate (C).
(§2) Flow cytometry. […] Cells were washed and incubated with phycoerythrin (PE)-conjugated species-specific secondary antibodies at 4° C. for 45 min to allow detection of binding. Cells were subsequently washed and fixed with 2% paraformaldehyde (PFA) prior to analysis by flow cytometry using a BD LSRII flow cytometer. Net delta median fluorescence intensities (ΔMFI) were obtained after subtracting the background fluorescence with PBS. […] After 48 h, binding of antibodies was assessed as described above.

human Claudin-1 [2] = biological target: T1, human Claudin-1; assay: flow cytometry, 20 µg/mL, Huh7.5.1 and HepG2 cells (FIG. 2A)
Protocol: as §1
as §2, with “Cells were subsequently washed and fixed with 2% paraformaldehyde (PFA) prior to analysis by flow cytometry using a BD LSRII flow cytometer.” left out

human Claudin-1 [3] = biological target: T1, human Claudin-1; assay: flow cytometry, 20 µg/mL, 293T cells transfected with CLDN1-expressing pcDNA3.1 (FIG. 2B)
Protocol: as §1
as §2, with “Cells were subsequently washed and fixed with 2% paraformaldehyde (PFA) prior to analysis by flow cytometry using a BD LSRII flow cytometer.” left out

human Claudin-1 [4] = biological target: T1, human Claudin-1; assay: not described (data not shown)

B1: humanized anti-CLDN1 mAb H2L1 (antibody, V domains shown)
VH: QVQLVESGGGVVQPGRSLRLSCAASGFSFSSYGMNWVRQAPGKGLEWVTSISPSGSYFYYADSVKGRFTISRDNSKNTLYLQMNSLRAEDTAIYYCARLPGFNPPFDHWGQGTLVTVSS
VL: DIQMTQSPATLSVSPGERATLSCKASQNVGGNVDWYQWKPGQAPRLLIYGASNRYTGIPARFRGSGSGTEFTLTISSLQSEDFAVYYCLQYKNNPWTFGQGTKVEIK
notes: Full-length antibody made in CHO cells; variable domains fused to the constant domains of human IgG4 heavy and human kappa light chains
Human Claudin-1 [1]
  binding result: binds

B2: humanized anti-CLDN1 mAb H2L2 (antibody, V domains shown)
VH: QVQLVESGGGVVQPGRSLRLSCAASGFSFSSYGMNWVRQAPGKGLEWVTSISPSGSYFYYADSVKGRFTISRDNSKNTLYLQMNSLRAEDTAIYYCARLPGFNPPFDHWGQGTLVTVSS
VL: DIQMTQSPSSLSASVGDRVTITCKASQNVGGNVDWYQWKPGKAPKLLIYGASNRYTGVPSRFRGSGSGTDFTLTISSLQPEDVATYYCLQYKNNPWTFGQGTKVEIK
notes: as for B1
Human Claudin-1 [1]
  binding result: binds

B3: humanized anti-CLDN1 mAb H1L3 (antibody, V domains shown)
VH: EVQLVESGGGLVKPGGSLRLSCAASGFSFSSYGMNWVRQAPGKGLEWVSSISPSGSYFYYADSVKGRFTISRDNAKNSLYLQMNSLRAEDTAVYYCARLPGFNPPFDHWGQGTLVTVSS
VL: DIQMTQSPSSLSASVGDRVTITCKASQNVGGNVDWYQWKPGKAPKLLIYGASNRYTGVPDRFRGSGSGTDFTLTISSLQPEDVATYYCLQYKNNPWTFGGGTKVEIK
notes: as for B1
Human Claudin-1 [1]
  binding result: binds

B4: humanized anti-CLDN1 mAb H3L1 (antibody, V domains shown)
VH: QVQLVESGGGVVQPGRSLRLSCLGSGFSFSSYGMNWVRQAPGKGLEWVASISPSGSYFYYADSVKGRFTISRDNSKNTLYLQMTSLRAEDTAIYYCARLPGFNPPFDHWGQGTLVTVSS
VL: DIQMTQSPATLSVSPGERATLSCKASQNVGGNVDWYQWKPGQAPRLLIYGASNRYTGIPARFRGSGSGTEFTLTISSLQSEDFAVYYCLQYKNNPWTFGQGTKVEIK
notes: as for B1
Human Claudin-1 [1]
  binding result: binds

B5: humanized anti-CLDN1 mAb H2L3 (antibody, V domains shown)
VH: QVQLVESGGGVVQPGRSLRLSCAASGFSFSSYGMNWVRQAPGKGLEWVTSISPSGSYFYYADSVKGRFTISRDNSKNTLYLQMNSLRAEDTAIYYCARLPGFNPPFDHWGQGTLVTVSS
VL: DIQMTQSPSSLSASVGDRVTITCKASQNVGGNVDWYQWKPGKAPKLLIYGASNRYTGVPDRFRGSGSGTDFTLTISSLQPEDVATYYCLQYKNNPWTFGGGTKVEIK
notes: as for B1
Human Claudin-1 [1]
  binding result: binds

B6: humanized anti-CLDN1 mAb H3L2 (antibody, V domains shown)
VH: QVQLVESGGGVVQPGRSLRLSCLGSGFSFSSYGMNWVRQAPGKGLEWVASISPSGSYFYYADSVKGRFTISRDNSKNTLYLQMTSLRAEDTAIYYCARLPGFNPPFDHWGQGTLVTVSS
VL: DIQMTQSPSSLSASVGDRVTITCKASQNVGGNVDWYQWKPGKAPKLLIYGASNRYTGVPSRFRGSGSGTDFTLTISSLQPEDVATYYCLQYKNNPWTFGQGTKVEIK
notes: as for B1
Human Claudin-1 [1]
  binding result: binds

B7: humanized anti-CLDN1 mAb H1L1 (antibody, V domains shown)
VH: EVQLVESGGGLVKPGGSLRLSCAASGFSFSSYGMNWVRQAPGKGLEWVSSISPSGSYFYYADSVKGRFTISRDNAKNSLYLQMNSLRAEDTAVYYCARLPGFNPPFDHWGQGTLVTVSS
VL: DIQMTQSPATLSVSPGERATLSCKASQNVGGNVDWYQWKPGQAPRLLIYGASNRYTGIPARFRGSGSGTEFTLTISSLQSEDFAVYYCLQYKNNPWTFGQGTKVEIK
notes: as for B1
Human Claudin-1 [2]
  binding result: binds

B8: humanized anti-CLDN1 mAb H3L3 (antibody, V domains shown)
VH: QVQLVESGGGVVQPGRSLRLSCLGSGFSFSSYGMNWVRQAPGKGLEWVASISPSGSYFYYADSVKGRFTISRDNSKNTLYLQMTSLRAEDTAIYYCARLPGFNPPFDHWGQGTLVTVSS
VL: DIQMTQSPSSLSASVGDRVTITCKASQNVGGNVDWYQWKPGKAPKLLIYGASNRYTGVPDRFRGSGSGTDFTLTISSLQPEDVATYYCLQYKNNPWTFGGGTKVEIK
notes: Full-length antibody made in CHO cells; variable domains fused to the constant domains of human IgG4 heavy and human kappa light chains; also called humanized anti-CLDN1 antibody clone H3L3; humanized CLDN1 mAb (H3L3)
Human Claudin-1 [3]
  binding result: binds

B9: humanized anti-CLDN1 mAb H1L2 (antibody, V domains shown)
VH: EVQLVESGGGLVKPGGSLRLSCAASGFSFSSYGMNWVRQAPGKGLEWVSSISPSGSYFYYADSVKGRFTISRDNAKNSLYLQMNSLRAEDTAVYYCARLPGFNPPFDHWGQGTLVTVSS
VL: DIQMTQSPSSLSASVGDRVTITCKASQNVGGNVDWYQWKPGKAPKLLIYGASNRYTGVPSRFRGSGSGTDFTLTISSLQPEDVATYYCLQYKNNPWTFGQGTKVEIK
notes: as for B1
Human Claudin-1 [1]
  binding result: binds

B10: rat anti-CLDN1 mAb OM-7D3-B3 (antibody, V domains shown)
VH: EVQLVESGGGLVQPGRSLKLSCLGSGFSFSSYGMNWIRQAPGKGLEWVASISPSGSYFYYADSVKGRFTISRENAKNTLYLQMTSLRAEDTALYYCARLPGFNPPFDHWGQGVVVTVSS
VL: NTVMTQSPTSMFMSVGDRVTMNCKASQNVGGNVDWYQWKPGQSPKLLMYGASNRYTGVPDRFRGSGSGTDFTLTISNMQTEDLAVYYCLQYKNNPWTFGGGTKVELK
notes: Hybridoma antibody, rat IgG2b with rat kappa light chain; also called rat OM-7D3-B3; parental rat antibody
Human Claudin-1 [1]
  binding result: binds

B11: recombinant full-length IgG2b (parent isotype) antibody with the VH and VL of rat OM-7D3-B3 (antibody, V domains shown)
VH: EVQLVESGGGLVQPGRSLKLSCLGSGFSFSSYGMNWIRQAPGKGLEWVASISPSGSYFYYADSVKGRFTISRENAKNTLYLQMTSLRAEDTALYYCARLPGFNPPFDHWGQGVVVTVSS
VL: NTVMTQSPTSMFMSVGDRVTMNCKASQNVGGNVDWYQWKPGQSPKLLMYGASNRYTGVPDRFRGSGSGTDFTLTISNMQTEDLAVYYCLQYKNNPWTFGGGTKVELK
notes: IgG2b as the parent; also called recombinant full-length IgG2b antibody
Human Claudin-1 [4]
  binding result: binds
